21 molecules from US20110118131A1 (published 2011) can be followed below.

B1: XPA23 Fab, heavy chain T28W (Fab, V domains shown)
VH: EVQLLESGGGLVQPGGSLRLSCAASGFWFSKYFMFWVRQAPGKGLEWVSVISPSGGMTRYADSVKGRFTISRDNSKNTLYLQMNSLRAEDTAVYYCARVGYGGNSDYWGQGTLVTVSS
VL: DIQMTQSPSSVSASVGDRLTIICRASQDINRWLAWYQQTPGNAPKLLIHSATSLQSGVPSRFSGSGSGTDFTLTINSLQPEDFATYYCQQADSFPLTFGGGTKVEIK
B2: XPA23 Fab, heavy chain T58H (Fab, V domains shown)
VH: EVQLLESGGGLVQPGGSLRLSCAASGFTFSKYFMFWVRQAPGKGLEWVSVISPSGGMHRYADSVKGRFTISRDNSKNTLYLQMNSLRAEDTAVYYCARVGYGGNSDYWGQGTLVTVSS
VL: DIQMTQSPSSVSASVGDRLTIICRASQDINRWLAWYQQTPGNAPKLLIHSATSLQSGVPSRFSGSGSGTDFTLTINSLQPEDFATYYCQQADSFPLTFGGGTKVEIK
B3: XPA23 Fab, heavy chain T58K (Fab, V domains shown)
VH: EVQLLESGGGLVQPGGSLRLSCAASGFTFSKYFMFWVRQAPGKGLEWVSVISPSGGMKRYADSVKGRFTISRDNSKNTLYLQMNSLRAEDTAVYYCARVGYGGNSDYWGQGTLVTVSS
VL: DIQMTQSPSSVSASVGDRLTIICRASQDINRWLAWYQQTPGNAPKLLIHSATSLQSGVPSRFSGSGSGTDFTLTINSLQPEDFATYYCQQADSFPLTFGGGTKVEIK
B4: XPA23 Fab, heavy chain T58W (Fab, V domains shown)
VH: EVQLLESGGGLVQPGGSLRLSCAASGFTFSKYFMFWVRQAPGKGLEWVSVISPSGGMWRYADSVKGRFTISRDNSKNTLYLQMNSLRAEDTAVYYCARVGYGGNSDYWGQGTLVTVSS
VL: DIQMTQSPSSVSASVGDRLTIICRASQDINRWLAWYQQTPGNAPKLLIHSATSLQSGVPSRFSGSGSGTDFTLTINSLQPEDFATYYCQQADSFPLTFGGGTKVEIK
B5: XPA23 Fab, heavy chain T58Q (Fab, V domains shown)
VH: EVQLLESGGGLVQPGGSLRLSCAASGFTFSKYFMFWVRQAPGKGLEWVSVISPSGGMQRYADSVKGRFTISRDNSKNTLYLQMNSLRAEDTAVYYCARVGYGGNSDYWGQGTLVTVSS
VL: DIQMTQSPSSVSASVGDRLTIICRASQDINRWLAWYQQTPGNAPKLLIHSATSLQSGVPSRFSGSGSGTDFTLTINSLQPEDFATYYCQQADSFPLTFGGGTKVEIK
B6: XPA23 Fab, heavy chain T58N (Fab, V domains shown)
VH: EVQLLESGGGLVQPGGSLRLSCAASGFTFSKYFMFWVRQAPGKGLEWVSVISPSGGMNRYADSVKGRFTISRDNSKNTLYLQMNSLRAEDTAVYYCARVGYGGNSDYWGQGTLVTVSS
VL: DIQMTQSPSSVSASVGDRLTIICRASQDINRWLAWYQQTPGNAPKLLIHSATSLQSGVPSRFSGSGSGTDFTLTINSLQPEDFATYYCQQADSFPLTFGGGTKVEIK
B7: XPA23 Fab, heavy chain T58F (Fab, V domains shown)
VH: EVQLLESGGGLVQPGGSLRLSCAASGFTFSKYFMFWVRQAPGKGLEWVSVISPSGGMFRYADSVKGRFTISRDNSKNTLYLQMNSLRAEDTAVYYCARVGYGGNSDYWGQGTLVTVSS
VL: DIQMTQSPSSVSASVGDRLTIICRASQDINRWLAWYQQTPGNAPKLLIHSATSLQSGVPSRFSGSGSGTDFTLTINSLQPEDFATYYCQQADSFPLTFGGGTKVEIK
B8: XPA23 Fab, heavy chain V50S (Fab, V domains shown)
VH: EVQLLESGGGLVQPGGSLRLSCAASGFTFSKYFMFWVRQAPGKGLEWVSSISPSGGMTRYADSVKGRFTISRDNSKNTLYLQMNSLRAEDTAVYYCARVGYGGNSDYWGQGTLVTVSS
VL: DIQMTQSPSSVSASVGDRLTIICRASQDINRWLAWYQQTPGNAPKLLIHSATSLQSGVPSRFSGSGSGTDFTLTINSLQPEDFATYYCQQADSFPLTFGGGTKVEIK
B9: XPA23 Fab, heavy chain T58E (Fab, V domains shown)
VH: EVQLLESGGGLVQPGGSLRLSCAASGFTFSKYFMFWVRQAPGKGLEWVSVISPSGGMERYADSVKGRFTISRDNSKNTLYLQMNSLRAEDTAVYYCARVGYGGNSDYWGQGTLVTVSS
VL: DIQMTQSPSSVSASVGDRLTIICRASQDINRWLAWYQQTPGNAPKLLIHSATSLQSGVPSRFSGSGSGTDFTLTINSLQPEDFATYYCQQADSFPLTFGGGTKVEIK
B10: XPA23 Fab, heavy chain T58S (Fab, V domains shown)
VH: EVQLLESGGGLVQPGGSLRLSCAASGFTFSKYFMFWVRQAPGKGLEWVSVISPSGGMSRYADSVKGRFTISRDNSKNTLYLQMNSLRAEDTAVYYCARVGYGGNSDYWGQGTLVTVSS
VL: DIQMTQSPSSVSASVGDRLTIICRASQDINRWLAWYQQTPGNAPKLLIHSATSLQSGVPSRFSGSGSGTDFTLTINSLQPEDFATYYCQQADSFPLTFGGGTKVEIK
B11: XPA23 Fab, heavy chain T58Y (Fab, V domains shown)
VH: EVQLLESGGGLVQPGGSLRLSCAASGFTFSKYFMFWVRQAPGKGLEWVSVISPSGGMYRYADSVKGRFTISRDNSKNTLYLQMNSLRAEDTAVYYCARVGYGGNSDYWGQGTLVTVSS
VL: DIQMTQSPSSVSASVGDRLTIICRASQDINRWLAWYQQTPGNAPKLLIHSATSLQSGVPSRFSGSGSGTDFTLTINSLQPEDFATYYCQQADSFPLTFGGGTKVEIK
B12: XPA23 Fab, heavy chain V50H (Fab, V domains shown)
VH: EVQLLESGGGLVQPGGSLRLSCAASGFTFSKYFMFWVRQAPGKGLEWVSHISPSGGMTRYADSVKGRFTISRDNSKNTLYLQMNSLRAEDTAVYYCARVGYGGNSDYWGQGTLVTVSS
VL: DIQMTQSPSSVSASVGDRLTIICRASQDINRWLAWYQQTPGNAPKLLIHSATSLQSGVPSRFSGSGSGTDFTLTINSLQPEDFATYYCQQADSFPLTFGGGTKVEIK
B13: XPA23 Fab, heavy chain T58R (Fab, V domains shown)
VH: EVQLLESGGGLVQPGGSLRLSCAASGFTFSKYFMFWVRQAPGKGLEWVSVISPSGGMRRYADSVKGRFTISRDNSKNTLYLQMNSLRAEDTAVYYCARVGYGGNSDYWGQGTLVTVSS
VL: DIQMTQSPSSVSASVGDRLTIICRASQDINRWLAWYQQTPGNAPKLLIHSATSLQSGVPSRFSGSGSGTDFTLTINSLQPEDFATYYCQQADSFPLTFGGGTKVEIK
B14: XPA23 Fab, heavy chain T58D (Fab, V domains shown)
VH: EVQLLESGGGLVQPGGSLRLSCAASGFTFSKYFMFWVRQAPGKGLEWVSVISPSGGMDRYADSVKGRFTISRDNSKNTLYLQMNSLRAEDTAVYYCARVGYGGNSDYWGQGTLVTVSS
VL: DIQMTQSPSSVSASVGDRLTIICRASQDINRWLAWYQQTPGNAPKLLIHSATSLQSGVPSRFSGSGSGTDFTLTINSLQPEDFATYYCQQADSFPLTFGGGTKVEIK
B15: XPA23 Fab, heavy chain V50R (Fab, V domains shown)
VH: EVQLLESGGGLVQPGGSLRLSCAASGFTFSKYFMFWVRQAPGKGLEWVSRISPSGGMTRYADSVKGRFTISRDNSKNTLYLQMNSLRAEDTAVYYCARVGYGGNSDYWGQGTLVTVSS
VL: DIQMTQSPSSVSASVGDRLTIICRASQDINRWLAWYQQTPGNAPKLLIHSATSLQSGVPSRFSGSGSGTDFTLTINSLQPEDFATYYCQQADSFPLTFGGGTKVEIK
B16: XPA23 Fab, heavy chain V50K (Fab, V domains shown)
VH: EVQLLESGGGLVQPGGSLRLSCAASGFTFSKYFMFWVRQAPGKGLEWVSKISPSGGMTRYADSVKGRFTISRDNSKNTLYLQMNSLRAEDTAVYYCARVGYGGNSDYWGQGTLVTVSS
VL: DIQMTQSPSSVSASVGDRLTIICRASQDINRWLAWYQQTPGNAPKLLIHSATSLQSGVPSRFSGSGSGTDFTLTINSLQPEDFATYYCQQADSFPLTFGGGTKVEIK
B17: XPA23 Fab, heavy chain V50F (Fab, V domains shown)
VH: EVQLLESGGGLVQPGGSLRLSCAASGFTFSKYFMFWVRQAPGKGLEWVSFISPSGGMTRYADSVKGRFTISRDNSKNTLYLQMNSLRAEDTAVYYCARVGYGGNSDYWGQGTLVTVSS
VL: DIQMTQSPSSVSASVGDRLTIICRASQDINRWLAWYQQTPGNAPKLLIHSATSLQSGVPSRFSGSGSGTDFTLTINSLQPEDFATYYCQQADSFPLTFGGGTKVEIK
B18: XPA23 Fab, heavy chain V50Q (Fab, V domains shown)
VH: EVQLLESGGGLVQPGGSLRLSCAASGFTFSKYFMFWVRQAPGKGLEWVSQISPSGGMTRYADSVKGRFTISRDNSKNTLYLQMNSLRAEDTAVYYCARVGYGGNSDYWGQGTLVTVSS
VL: DIQMTQSPSSVSASVGDRLTIICRASQDINRWLAWYQQTPGNAPKLLIHSATSLQSGVPSRFSGSGSGTDFTLTINSLQPEDFATYYCQQADSFPLTFGGGTKVEIK
B19: XPA23 Fab, heavy chain V50D (Fab, V domains shown)
VH: EVQLLESGGGLVQPGGSLRLSCAASGFTFSKYFMFWVRQAPGKGLEWVSDISPSGGMTRYADSVKGRFTISRDNSKNTLYLQMNSLRAEDTAVYYCARVGYGGNSDYWGQGTLVTVSS
VL: DIQMTQSPSSVSASVGDRLTIICRASQDINRWLAWYQQTPGNAPKLLIHSATSLQSGVPSRFSGSGSGTDFTLTINSLQPEDFATYYCQQADSFPLTFGGGTKVEIK
B20: XPA23 Fab, heavy chain V50E (Fab, V domains shown)
VH: EVQLLESGGGLVQPGGSLRLSCAASGFTFSKYFMFWVRQAPGKGLEWVSEISPSGGMTRYADSVKGRFTISRDNSKNTLYLQMNSLRAEDTAVYYCARVGYGGNSDYWGQGTLVTVSS
VL: DIQMTQSPSSVSASVGDRLTIICRASQDINRWLAWYQQTPGNAPKLLIHSATSLQSGVPSRFSGSGSGTDFTLTINSLQPEDFATYYCQQADSFPLTFGGGTKVEIK
B21: XPA23 Fab, heavy chain V50W (Fab, V domains shown)
VH: EVQLLESGGGLVQPGGSLRLSCAASGFTFSKYFMFWVRQAPGKGLEWVSWISPSGGMTRYADSVKGRFTISRDNSKNTLYLQMNSLRAEDTAVYYCARVGYGGNSDYWGQGTLVTVSS
VL: DIQMTQSPSSVSASVGDRLTIICRASQDINRWLAWYQQTPGNAPKLLIHSATSLQSGVPSRFSGSGSGTDFTLTINSLQPEDFATYYCQQADSFPLTFGGGTKVEIK

In the test the target is T1, IL-1beta (UniProt P01584 117-269).
T1 construct: also called IL-1β
The experiment in a line: Biacore. (In general: Surface plasmon resonance follows binding to a sensor surface in real time, without labels.)
For B1, the binding result is reported as “no binding”.
On to B2, for which the “fold difference in affinity vs parental” value stood at 0.98 fold.
With B3, the binding result is given as “no binding”.
On to B4, for which the “fold difference in affinity vs parental” value was 0.93 fold.
With B5, the binding result is “no binding”.
Turning to B6, the “fold difference in affinity vs parental” value came out at 0.9 fold.
Take B7: the “fold difference in affinity vs parental” value came to 1.04 fold.
In the case of B8, the binding result was “no binding”.
In the case of B9, the binding result is recorded as “no binding”.
Consider B10, for which the “fold difference in affinity vs parental” value amounted to 0.82 fold.
Still for that read-out and setting: under B11 stands 1.01 fold.
For B12, the binding result was “no binding”.
As for B13, the “fold difference in affinity vs parental” value is 1.14 fold.
B14: the “fold difference in affinity vs parental” value was 0.12 fold.
On to B15, for which the binding result is given as “no binding”.
On to B16, for which the binding result is on record as “no binding”.
Same read-out and setting: next, B17: “no binding”; B18: “no binding”.
The same measure, in the same setting: under B19 stands “no binding”; under B20, “no binding”.
Same read-out and setting: next, B21: “no binding”.
